Target: GST-GABARAP (human), O95166
Test: microscopy-based on-bead protein-protein interaction assay
Settings: remark: other sources report otherwise

GST-GABARAP (human), O95166, sequence (O95166 whole entry): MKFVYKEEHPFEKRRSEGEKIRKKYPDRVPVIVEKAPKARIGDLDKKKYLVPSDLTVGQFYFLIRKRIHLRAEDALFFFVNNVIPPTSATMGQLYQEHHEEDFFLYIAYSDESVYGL

percent recruited less than wild type C53: 78%
B1: mCherry tagged HsC53^sAIM, Q96JB5 1-506 (natural protein)
chain: MEDHQHVPIDIQTSKLLDWLVDRRHCSLKWQSLVLTIREKINAAIQDMPESEEIAQLLSGSYIHYFHCLRILDLLKGTEASTKNIFGRYSSQRMKDWQEIIALYEKDNTYLVELSSLLVRNVNYEIPSLKKQIAKCQQLQQEYSRKEEECQAGAAEMREQFYHSCKQYGITGENVRGELLALVKDLPSQLAEIGAAAQQSLGEAIDVYQASVGFVCESPTEQVLPMLRFVQKRGNSTVYEWRTGTEPSVVERPHLEELPEQVAEDAIDAGDFGVEAVSEGTDSGISAEAAGIDAGIFPESDSKDPGGDGIDAGDDAVALQITVLEAGTQAPEGVARGPDALTLLEYTETRNQFLDELMELEIFLAQRAVELSEEADVLSVSQFQLAPAILQGQTKEKMVTMVSVLEDLIGKLTSLQLQHLFMILASPRYVDRVTEFLQQKLKQSQLLALKKELMVQKQQEALEEQAALEPKLDLLLEKTKELQKLIEADISKRYSGRPVNLMGTSL
